Results reported in paper PMC10234438.

The substances below were run on IMP3 (GST-/His-tagged) (human) (assay: EMSA). Settings: EMSA: 10 mM Tris-HCl pH 7.5, 150 mM NaCl, 0.5 mM EDTA, 0.5 mM DTT, 0.1% NP-40, 5% glycerol, RNaseOUT, 1 ug tRNA, 1 ug BSA; 5 nM RNA; 30 min at 25 C, then 5 min ….
In the case of 101-mer linear, the Kd is reported as 9.3 nM. With ANKRD17 linear the Kd was 8.7 nM. With all-UG linear the Kd was 48.8 nM.

Same assay, conditions: circular (T4 RNA ligase); EMSA: 10 mM Tris-HCl pH 7.5, 150 mM NaCl, 0.5 mM EDTA, 0.5 mM DTT, 0.1% NP-40, 5% glycerol, RNaseOUT, 1 ug tRNA, 1 ug BSA; 5 nM RNA; 30 min at 25 C, then 5 min …
Substance 101-mer circRNA has a Kd of 10.4 nM. ANKRD17 circRNA showed a Kd of 8.5 nM. all-UG circRNA was tested, and the Kd was 60.3 nM.
